Test [1] deals with CHO transfectant cell line expressing PDGF-R β (CHO C4). Put plainly: Inhibition of PDGF BB-induced proliferation (3H-thymidine) of CHO C4 cells. In kind it is cell-based, Chinese hamster. The settings on record: for inhibition of PDGF BB-induced proliferation: 50 ng/ml PDGF BB, sufficient antibody concentration. On the procedure:
To determine the ability of muM4TS.11 and muM4TS.22 to block PDGF-mediated proliferation, a CHO transfectant cell line expressing PDGF-R β (CHO C4) was generated, as described above. Proliferation of this line, as measured by incorporation of ^3 H-thymidine by DNA synthesis, is stimulated several-fold by PDGF BB. The CHO PDGF-R β transfectants were plated in a 96-well tissue culture plate at about 50,000 cells/well in Ham's F-12+10% FCS and incubated for 1-2 days. The medium was removed, and the cells were washed once with serum-free medium (Ham's F-12+1 mg/ml BSA) and incubated in this media for 1-2 days to put them in a quiescent state. The appropriate amount of antibody in serum-free medium was added, and after 1-3 hours, 50 ng/ml PDGF BB was added. After overnight incubation, 1 μCi ^3 H-thymidine was added, and after a final 4 hour incubation, the cells were harvested using a PHD cell harvester (Cambridge Technology) and analyzed with a scintillation counter.

Test [2] concerns PDGF-R β. As to the kind of experiment: Competitive binding with 125I-PDGF BB on transfectant cells expressing PDGF-R β. Further details: species or system human. The settings on record: 4° C. On the procedure:
To determine the ability of muM4TS.11 and muM4TS.22 to block binding of PDGF BB to PDGF-R β, the following competitive binding experiments were performed. Transfectant cells expressing PDGF-R β were harvested, washed twice with cold DMEM, and resuspended at 10^6 cells/ml in DMEM. The assay was carried out in triplicate by incubating 100 μl of the cell suspension with either: 1) no antibody (to determine total binding); 2) varying concentrations of antibody; or 3) 100 ng cold PDGF BB (to saturate specific binding sites and determine non-specific binding) for 15 minutes at 4° C. Each sample received 1.0 ng ^125 I-labeled PDGF BB, and was incubated for an additional 60 min at 4° C. Unbound ^125 I-labeled PDGF BB was separated from that bound to the cell by layering the sample over a mixture of 80% dibutylphthalate, 20% olive oil in a microfuge tube, and microfuging briefly to pellet the cells through the oil mixture. The tubes were placed in dry ice to freeze the contents, the tip of the tube containing the cell pellet was cut off into a vial, and radioactivity was determined in a gamma counter.
To assess the ability of HuM4TS.22 to block the binding of PDGF BB to its receptor, competitive binding experiments of HuM4TS.22 with ^125 I-PDGF BB were performed according to the method described in Example 3.
To assess the ability of muM4TS.11 and HuM4TS.11 to block the binding of PDGF BB to the PDGF β receptor, competitive binding experiments of these antibodies with ^125 I-PDGF BB were performed according to the method described in Example 3.

For test [3], the system named is PDGF-R β deletion fusion proteins. As to the kind of experiment: ELISA epitope mapping with PDGF-R β deletion fusion proteins. It counts as binding, human. The settings on record: for binding to protein D5 (fifth domain only): separate experiment. The text has this:
To localize the binding sites of the M4TS antibodies on the PDGF-R, a series of PDGF-R β deletion mutants, each consisting of one or more adjacent domains of the extracellular portion of the receptor, was constructed by standard methods including PCR. The deletion constructs were each cloned into an expression plasmid (FIG. 13A) where they were fused to the constant region of the human lambda-1 immunoglobulin light chain, to facilitate detection in ELISA. The constructs were as follows (see FIG. 13B):
These PDGF-R β deletion fusion proteins were transiently expressed, by transfecting 10 μg of the respective expression plasmids into approximately 10^7 S194 mouse myeloma cells (ATCC TIB 19) using the DEAE-dextran method in accordance with the method described by Queen et al. (1984) Mol. Cell. Biol. 4:1042. After the transfected cells had died (4-5 days) and been removed by centrifugation, the culture supernatants containing the PDGF-R β deletion proteins were used in ELISA assays, 100 μl/well. First, the relative levels of the various PDGF-R β deletion proteins were measured in an ELISA where the plate was coated with goat anti-human lambda antibody (Tago) and the proteins detected with HRP-conjugated goat anti-human lambda antibody. […] To determine the ability of the antibodies to bind to each deletion protein, an ELISA was performed in which goat anti-human lambda antibody was used to coat the plate, followed by the cell supernatant and then 0.1 μg of the appropriate antibody, and then bound antibody detected with HRP-conjugated goat-anti-mouse Ig or goat-anti-human Ig antibody as appropriate (Tago). As a positive control, purified soluble PDGF-R β (Example 1) was coated directly on certain wells of the plate (denoted D1-5 in FIG. 14).
Background: An ELISA detects its analyte on a solid surface through an enzyme-linked reagent.

In test [4] the test system is PDGF-R β expressed on the cell membrane. Put plainly: Flow cytometry binding to CHO PDGF-R β transfectant cells. On the set-up: species or system human. The conditions noted are these: 0.1-1 μg/ml antibody; CHO PDGF-R β transfectants vs untransfected CHO. On the procedure: The cells were washed once in cold PBS and resuspended in 50 μl of PBS containing 10 μg/ml FITC-conjugated goat anti-mouse IgG and incubated for 30 min. After another wash, the cells were fixed by resuspension in 0.25 ml of paraformaldehyde in PBS, and analyzed for fluorescence by flow cytometry on a FACScan (Becton Dickinson).
Background: Flow cytometry measures light scatter and fluorescence of single cells or particles in a stream.

Test [5] deals with human primary fibroblast cell line AG1523B. Put plainly: Inhibition of PDGF BB-stimulated proliferation of AG1523B fibroblasts. It counts as cell-based. The conditions noted are these: 300 ng/ml PDGF BB.
The subject of test [6] is PDGF-R β. As to the kind of experiment: Competition with 125I-labeled murine antibody tracer on Sp2/0 PDGF-R β transfectant cells. In kind it is binding, human. The conditions noted are these: Sp2/0 PDGF-R β transfectants; for binding affinity Ka: calculated from competitive binding data. On the procedure:
To assess the ability of HuM4TS.22 to compete with muM4TS.22 for receptor binding, increasing concentrations of the two antibodies were respectively incubated on ice for one hour with Sp2/0 PDGF-R β transfectant cells and a fixed amount of tracer ^125 I-labeled muAb. The sample tubes were processed as in the blocking experiment just described.
To assess the ability of HuM4TS.11 to compete with the muAb for receptor binding, increasing concentrations of the two antibodies were respectively incubated on ice for one hour with Sp2/0 PDGF-R β transfectant cells and a fixed amount of tracer ^125 I-labeled M4TS.11. The sample tubes were processed as in the blocking experiment described. […] The binding affinities calculated from the data were: Ka =5×10^8 M^-1 for the muAb and 3×10^7 M^-1 for the HuAb.

For test [7], the system named is PDGF-R β. As to the kind of experiment: Flow cytometry (FACS) staining of Sp2/0 transfectant cells expressing PDGF-R β. In kind it is binding, human. The conditions noted are these: 50 ng antibody; vs untransfected Sp2/0 cells. On the procedure:
The cells were washed with cold PBS, incubated for an additional 30 minutes with FITC-labeled goat-anti-human Ig (Tago Immunologicals) and analyzed by flow cytometry (FACS).
The cells were washed with cold PBS, incubated for an additional 30 minutes with FITC-labeled goat-anti-human Ig (Tago Immunologicals) and analyzed by flow cytometry (FACS). […] Neither an irrelevant control antibody nor the FITC-labeled goat antibody alone stained either cell type.

Where a chain is given by its changes, count along the chain named. Entries after “also recorded” stand apart in the source; their conditions may differ.

B1: muM4TS.22: murine monoclonal antibody to PDGF-R β, variable regions SEQ ID NOS:2 and 4; epitope in third extracellular domain (antibody, V domains shown)
VL: MRVLAELLGLLLFCFLGVRCDIQMNQSPSSLSASLGDTITITCHASQNINVWLSWYQRKPGNIPKLLIYKASNLHTGVPSRFSGSGSGTGFTLTISSLQPEDIATYYCQQGQSFPFTFGSGTKLEIK
VH: MAVLALLLCLVTFPSCALSQVQLKESGPGLVAPSQSLSITCTVSGFSLTNYAINWVRQPPGQGLEWLGIIWTGGGTSYNSALKSRLSISKDNSKSQVFLKMNSLQTDDTARYYCARTGTRGYFFDYWGQGTTLTVSS
Consider B1, for which the “inhibition of PDGF BB-induced proliferation” value in test [1] was “completely inhibited proliferation of the cells induced by PDGF BB; also recorded: almost completely inhibited the stimulation of proliferation by PDGF BB”. Further, the “blocking of 125I-PDGF BB binding to PDGF-R β” value (“blocking” below) in test [2] is “competitively blocked binding of PDGF BB to PDGF-R β; also recorded: did have the ability to block binding of PDGF BB to PDGF-R β”. In test [3] (0.1 μg antibody), the “binding to deletion proteins containing only first through second domains” value was “do not bind”, the “binding to protein D1-3” value is given as “do bind to protein D1-3” and the “binding to protein D3 (third domain only)” value was “bind to the protein D3”. For the same molecule, the “binding to protein D5 (fifth domain only)” value (“binding to protein D5” below) in test [3] was “none of muM4TS.11 and HuM4TS.11, muM4TS.22 and HuM4TS.22 bound to it”. Further, the “specific binding to membrane PDGF-R β by flow cytometry” value in test [4] was “specifically bound to CHO PDGF-R β transfectant cells but not to untransfected CHO cells”. The “inhibition of stimulation of proliferation by PDGF BB” value in test [5] is “effectively inhibited the stimulation of proliferation by PDGF BB”. For the same molecule, in test [6], the “competition with labeled murine antibody for receptor binding / binding affinity, in words” value was “competed with equal efficiencies” and the “binding affinity Ka” value is 2.6e+08 M⁻¹.

B2: HuM4TS.22: humanized muM4TS.22, human IC4 framework, gamma4 constant region; SEQ ID NOS:6 and 8 (antibody, V domains shown)
VL: B1 VL with N25T, L35V, T38R, I39V, R58Q, N62K, I63A, S120G, L124V
VH: MAVLALLLCLVTFPSCALSQVQLQESGPGLVKPSETLSLTCTVSGFSLTNYAINWVRQPPGKGLEWLGIIWTGGGTSYNSALKSRLTISKDTSKNQVSLKLSSVTAADTAVYYCARTGTRGYFFDYWGQGTLVTVSS
For the molecule B2, in test [1], the “inhibition of PDGF-mediated proliferation compared with another antibody” value is “about equally as well as muM4TS.22” and the “inhibition of PDGF BB-induced proliferation” value is recorded as “almost completely inhibited the stimulation of proliferation by PDGF BB”. In test [2], the “blocking” value is listed as “reduced the binding of radiolabelled PDGF BB ligand to the PDGF-R β transfectant cells to the non-specific level; also recorded: did have the ability to block binding of PDGF BB to PDGF-R β”. Moreover, in test [3] (0.1 μg antibody), the “binding to deletion proteins containing only first through second domains” value is on record as “do not bind”, the “binding to protein D1-3” value is reported as “do bind to protein D1-3” and the “binding to protein D3 (third domain only)” value is recorded as “bind to the protein D3”. In addition, the “binding to protein D5” value in test [3] was “none of muM4TS.11 and HuM4TS.11, muM4TS.22 and HuM4TS.22 bound to it”. The “FACS staining of Sp2/0 PDGF-R β transfectant cells” value in test [7] is reported as “stained the transfectant cells but did not stain untransfected Sp2/0 cells at all”. In test [6], the “competition with labeled murine antibody for receptor binding / binding affinity, in words” value is recorded as “competed with equal efficiencies” and the “binding affinity Ka” value was 4e+08 M⁻¹.

B3: HuM4TS.11: humanized muM4TS.11, human III-2R framework, gamma4 constant region; SEQ ID NOS:14 and 16 (antibody, V domains shown)
VL: METDTLLLWVLLLWVPGSTGDIQMTQSPSSLSASVGDRVTITCRASESVDSYGNSFMHWYQQKPGKAPKLLIYRASNLESGIPSRFSGSGSRTDFTLTISSLQPEDVATYYCQQSNEDPPTFGQGTKVEIK
VH: MGWSWIFLFLLSGTAGVHSQVQLVQSGAEVKKPGASVKVSCKASGYTFTNCWMHWVRQAPGQGLEWIGYINPTTGYSEYNQNFKDKATITADKSTSTAYMELSSLRSEDTAVYYCTSNYGHYDWFGNWGQGTLVT
B3: in test [1], the “inhibition of PDGF-mediated proliferation compared with another antibody” value is “nearly as well as muM4TS.11; also recorded: about equally well” and the “inhibition of PDGF BB-induced proliferation” value is given as “almost completely inhibited the stimulation of proliferation by PDGF BB”. Also, in test [2], the “blocking” value is listed as “neither muM4TS.11 nor HuM4TS.11 were able to inhibit binding of PDGF BB to its receptor”. Moreover, in test [3] (0.1 μg antibody), the “binding to deletion proteins containing only first through third domains” value was “do not bind” and the “binding to protein D1-4” value is recorded as “do bind to protein D1-4”. Besides, in test [3], the “binding to protein D5” value is “none of muM4TS.11 and HuM4TS.11, muM4TS.22 and HuM4TS.22 bound to it”. For the same molecule, in test [7], the “FACS staining of Sp2/0 PDGF-R β transfectant cells” value was “stained the transfectant cells but did not stain untransfected Sp2/0 cells at all”. Moreover, in test [6], the “competition with labeled murine antibody for receptor binding / binding affinity, in words” value is given as “competed less well than muM4TS.11” and the “binding affinity Ka” value was 3e+07 M⁻¹.
